Test results published in patent US20240327522A1 (Genentech, published 2024).

Legend:
[1] = biological target: T1, recombinant human αvβ8 protein (PARS-17102) (human); assay: SPR binding assay, experiment 2, antibody as ligand, aVb8 as sample
T1 construct: also called hu.aVb8.17102; not shown: C-terminal acid/basic coils and any purification tags
T1 alpha: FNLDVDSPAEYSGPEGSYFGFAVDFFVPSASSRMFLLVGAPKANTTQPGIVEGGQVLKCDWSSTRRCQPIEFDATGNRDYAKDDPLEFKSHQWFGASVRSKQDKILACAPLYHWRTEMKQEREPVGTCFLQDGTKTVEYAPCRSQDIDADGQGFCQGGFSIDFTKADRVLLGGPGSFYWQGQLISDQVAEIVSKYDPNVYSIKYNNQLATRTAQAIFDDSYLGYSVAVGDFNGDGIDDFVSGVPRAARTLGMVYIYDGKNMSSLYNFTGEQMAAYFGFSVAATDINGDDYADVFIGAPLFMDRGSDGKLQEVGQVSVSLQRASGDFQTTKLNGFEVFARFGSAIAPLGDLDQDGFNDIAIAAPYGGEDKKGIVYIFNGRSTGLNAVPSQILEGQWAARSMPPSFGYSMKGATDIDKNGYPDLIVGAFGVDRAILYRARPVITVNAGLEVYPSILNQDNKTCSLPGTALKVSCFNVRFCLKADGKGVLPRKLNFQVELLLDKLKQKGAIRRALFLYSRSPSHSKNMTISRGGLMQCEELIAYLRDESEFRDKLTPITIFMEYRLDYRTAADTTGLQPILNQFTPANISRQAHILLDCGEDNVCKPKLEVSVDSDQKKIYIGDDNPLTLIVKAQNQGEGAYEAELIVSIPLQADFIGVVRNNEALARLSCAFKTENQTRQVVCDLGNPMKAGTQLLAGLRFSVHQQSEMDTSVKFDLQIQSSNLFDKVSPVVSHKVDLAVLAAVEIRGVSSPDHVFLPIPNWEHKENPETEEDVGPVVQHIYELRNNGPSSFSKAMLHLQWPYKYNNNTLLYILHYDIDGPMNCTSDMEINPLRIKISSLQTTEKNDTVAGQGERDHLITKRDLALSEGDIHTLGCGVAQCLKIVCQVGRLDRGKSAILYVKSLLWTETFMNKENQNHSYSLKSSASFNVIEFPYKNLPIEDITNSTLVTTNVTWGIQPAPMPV
T1 beta: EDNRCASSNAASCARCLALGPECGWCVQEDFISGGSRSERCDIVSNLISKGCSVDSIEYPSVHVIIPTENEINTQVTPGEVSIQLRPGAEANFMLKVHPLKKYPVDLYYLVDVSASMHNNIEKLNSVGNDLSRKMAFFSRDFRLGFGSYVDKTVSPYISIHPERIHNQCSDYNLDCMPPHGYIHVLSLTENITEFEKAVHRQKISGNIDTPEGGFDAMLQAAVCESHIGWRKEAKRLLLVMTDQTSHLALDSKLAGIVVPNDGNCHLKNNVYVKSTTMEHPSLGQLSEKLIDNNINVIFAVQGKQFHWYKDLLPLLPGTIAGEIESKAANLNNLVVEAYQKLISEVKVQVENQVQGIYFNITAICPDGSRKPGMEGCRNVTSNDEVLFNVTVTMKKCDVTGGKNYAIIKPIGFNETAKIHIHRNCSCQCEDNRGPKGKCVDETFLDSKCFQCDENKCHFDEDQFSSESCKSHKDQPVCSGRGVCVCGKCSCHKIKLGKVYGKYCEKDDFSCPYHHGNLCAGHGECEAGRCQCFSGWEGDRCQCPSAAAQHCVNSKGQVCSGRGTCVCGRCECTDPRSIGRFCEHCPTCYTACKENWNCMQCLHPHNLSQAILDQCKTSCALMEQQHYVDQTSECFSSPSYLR

[2] = biological target: T1, recombinant human αvβ8 protein …; assay: SPR, Biacore T200, antibody captured on Protein A chip, 3-fold analyte series 0-100 nM, 37 C, 1:1 model; average ± as printed
Procedure: (§1) The ability of the anti-αVP8-65 to bind to different αVβ8 proteins was assessed using SPR measurements (Karlsson et al. 1991) on a Biacore™ T200 (Cytiva Life Sciences; Marlborough, MA) instrument (Safsten et al. 2006). anti-αV08-65 was first captured on a Biacore™ Protein A biosensor chip (Cytiva Life Sciences) to achieve approximately 60 response units. Binding measurements were performed using a running buffer composed of 10 mM HEPES (pH 7.4), 150 mM NaCl, 0.5 mM CaCl₂), 0.5 mM MgCl₂, and 0.005% Surfactant P20 (Cytiva Life Sciences). A 3-fold dilution series of the analyte proteins (range, 0-100 nM in running buffer) was injected into the Biacore™ T200. All injections were performed over 180 seconds, with a dissociation time of 1200 seconds, at a flow rate of 100 μL/minute and a temperature of 37° C. Between sample injections, 10 mM glycine (pH 1.5) was injected to regenerate the sensor chip (twice, over 30 seconds at 10 μL/minute for each injection). To determine the binding kinetics and affinity constants of anti-αVP8-65 to the various species of the αVβ8 protein, the signal from the reference flow cell (FC1, with only protein A on the surface) was “double referenced” by subtracting the signal observed after injecting the sample over FC1, followed by subtracting the signal observed after injecting only running buffer. The kinetic constants were calculated using non-linear regression fitting of the data, according to a 1:1 Langmuir binding model, using Biacore™ Evaluation Software (Cytiva Life Sciences) for anti-αVP8-65 binding to recombinant human, cynomolgus monkey, mouse, and rat αVβ8 proteins.

[3] = biological target: T2, recombinant mouse αvβ8 protein (PARS-17103) (murine, UniProt P43406 31-988; Q0VBD0 43-681, limits assumed); assay: as above
T2 construct: Made in house; also called mu.aVb8.17103
Procedure: as §1

[4] = biological target: T3, recombinant cynomolgus monkey αvβ8 protein (PARS-19393) (cynomolgus monkey, UniProt A0A2K5WCD3 31-992; G7P0S0 43-684); assay: as above
T3 construct: also called cyno.aVb8-19393; cyno.aVb8
Procedure: as §1

[5] = biological target: T4, recombinant rat αvβ8 protein (PARS-22180) (rat, UniProt F1LZX9 31-987; A0A0G2JVU1 43-682); assay: as above
T4 construct: also called rat.aVb8
Procedure: as §1

T2 sequence (P43406 31-988 limits assumed, chain 1 of 2): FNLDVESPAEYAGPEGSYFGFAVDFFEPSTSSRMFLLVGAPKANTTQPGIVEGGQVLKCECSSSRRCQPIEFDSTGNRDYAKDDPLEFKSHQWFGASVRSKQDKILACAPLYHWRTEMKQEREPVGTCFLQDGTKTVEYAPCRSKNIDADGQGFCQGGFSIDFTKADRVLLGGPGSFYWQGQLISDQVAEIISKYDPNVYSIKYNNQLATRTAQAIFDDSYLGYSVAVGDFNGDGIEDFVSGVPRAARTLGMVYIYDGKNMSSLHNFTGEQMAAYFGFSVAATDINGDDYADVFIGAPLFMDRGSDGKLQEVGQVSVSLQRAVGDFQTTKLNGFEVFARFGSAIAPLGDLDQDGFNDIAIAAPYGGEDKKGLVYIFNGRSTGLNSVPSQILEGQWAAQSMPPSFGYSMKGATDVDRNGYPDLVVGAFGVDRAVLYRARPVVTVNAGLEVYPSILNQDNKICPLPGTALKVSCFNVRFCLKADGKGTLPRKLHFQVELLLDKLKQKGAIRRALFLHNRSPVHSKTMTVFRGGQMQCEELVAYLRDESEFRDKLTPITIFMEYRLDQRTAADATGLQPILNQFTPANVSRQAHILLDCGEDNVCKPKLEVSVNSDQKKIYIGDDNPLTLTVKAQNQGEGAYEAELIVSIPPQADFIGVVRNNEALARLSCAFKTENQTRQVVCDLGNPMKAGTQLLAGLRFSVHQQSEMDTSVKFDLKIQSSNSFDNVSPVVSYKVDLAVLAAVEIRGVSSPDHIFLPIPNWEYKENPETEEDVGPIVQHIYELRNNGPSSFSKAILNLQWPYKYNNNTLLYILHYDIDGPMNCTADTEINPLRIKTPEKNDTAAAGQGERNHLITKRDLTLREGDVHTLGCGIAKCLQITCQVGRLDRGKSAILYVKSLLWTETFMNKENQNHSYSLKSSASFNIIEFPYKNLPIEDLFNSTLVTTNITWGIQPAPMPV
T2 sequence (Q0VBD0 43-681 limits assumed, chain 2 of 2): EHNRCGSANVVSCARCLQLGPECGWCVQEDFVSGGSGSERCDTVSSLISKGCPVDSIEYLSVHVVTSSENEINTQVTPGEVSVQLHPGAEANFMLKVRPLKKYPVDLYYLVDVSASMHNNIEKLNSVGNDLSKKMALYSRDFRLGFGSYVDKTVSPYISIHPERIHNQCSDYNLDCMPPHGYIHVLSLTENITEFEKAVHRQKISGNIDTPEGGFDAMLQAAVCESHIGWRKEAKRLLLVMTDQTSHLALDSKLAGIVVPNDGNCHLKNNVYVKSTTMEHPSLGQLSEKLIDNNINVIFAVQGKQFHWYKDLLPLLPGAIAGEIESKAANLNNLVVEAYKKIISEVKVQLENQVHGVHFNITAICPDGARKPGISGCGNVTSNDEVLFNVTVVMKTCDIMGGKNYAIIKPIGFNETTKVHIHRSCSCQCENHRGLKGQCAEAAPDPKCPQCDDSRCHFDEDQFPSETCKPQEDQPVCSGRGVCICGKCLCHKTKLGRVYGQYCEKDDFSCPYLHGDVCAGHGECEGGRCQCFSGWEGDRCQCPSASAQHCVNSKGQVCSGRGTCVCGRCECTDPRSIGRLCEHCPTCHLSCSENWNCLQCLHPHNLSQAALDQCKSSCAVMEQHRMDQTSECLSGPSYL

B1: Hu.aVb8-65.H15L2 (aVb8-65.H15L2.hIgG1.LALAPG) (antibody, V domains shown)
VH: EVQLLESGGGLVQPGGSLRLSCAASGIDLSNYAMIWVRQAPGKGLEWVGIISSSDRIWYASWVKGRFTISRDNSKNTLYLQMNSLRAEDTAVYYCSRSVSNSYFDGWNLWGQGTLVTVSS
VL: DIQMTQSPSSVSASVGDRVTITCQASENINSLLAWYQQKPGKAPKLLIYRASTLASGVPSRFSGSGSGTDFTLTISSLQPEDFATYYCQSNYGFTGSGAFFYGFGQGTKVEIKR
notes: Human IgG1 LALAPG; also called PARS-20475-65 (IH) aVb8-65.H15L2.hIgG1.LALAPG; humanized αvβ8-65
Kd [1]: 1.04 nM | koff [1]: 0.000181 s⁻¹ | kon [1]: 174000 M⁻¹ s⁻¹ | Kd [2]: 0.5 nM | koff [2]: 8.8e-05 s⁻¹ | kon [2]: 175000 M⁻¹ s⁻¹ | Kd [3]: 0.94 nM | koff [3]: 0.000108 s⁻¹ | kon [3]: 140000 M⁻¹ s⁻¹ | Kd [4]: 0.7 nM | koff [4]: 0.00013 s⁻¹ | kon [4]: 180000 M⁻¹ s⁻¹ | Kd [5]: 1 nM | koff [5]: 0.00011 s⁻¹ | kon [5]: 104000 M⁻¹ s⁻¹
